Source: PMC11314421

B1: Q2 (biotinylated, SPR) (structured_RNA)
RNA: UUUUUCCUGGAAUUUGGAGGGAUGGGAGGAGGGGGUGGGGCUUACUUGUUGUAGCUU
B2: Q3 (biotinylated, SPR) (structured_RNA)
RNA: CUCAAGCGGUGCUUGAAGGGGAGGGAAAGCGGGAAAGCGGGCAACCACUUUUCCCUAGC

Molecular target: ΔNCL (DelNucleolin) (UniProt P19338 284-710, del1-283)
Assay: SPR

Chain of ΔNCL (DelNucleolin) (P19338 284-710, stated change not applied): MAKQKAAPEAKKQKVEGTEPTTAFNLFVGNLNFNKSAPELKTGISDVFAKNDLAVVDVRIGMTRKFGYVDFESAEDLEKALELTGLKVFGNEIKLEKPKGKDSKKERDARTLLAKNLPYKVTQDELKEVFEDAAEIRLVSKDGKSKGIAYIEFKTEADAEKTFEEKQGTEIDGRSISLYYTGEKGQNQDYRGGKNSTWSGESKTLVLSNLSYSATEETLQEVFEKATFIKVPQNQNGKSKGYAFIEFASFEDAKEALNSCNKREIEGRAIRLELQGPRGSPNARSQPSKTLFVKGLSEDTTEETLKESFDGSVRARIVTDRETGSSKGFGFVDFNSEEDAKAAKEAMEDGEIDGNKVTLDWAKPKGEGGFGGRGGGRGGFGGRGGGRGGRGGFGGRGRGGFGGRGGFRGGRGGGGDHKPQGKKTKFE

Row | Binder | Kd
1 | B1 | 4 nM
2 | B2 | 15 nM
